In assay [1] the target is T1, GroEL (E. coli, UniProt P0A6F5 1-548). Kind of assay: SEC. (SEC sorts molecules by how far they enter the pores of the column.)
In assay [2] the target is T1, GroEL. Briefly: atomic force microscopy.
For assay [3], the target named is T1, GroEL. Briefly: fluorescence polarisation + other fluorescence titration. For orientation: Fluorescence polarisation rises when a labelled molecule tumbles more slowly, as on binding a larger partner.
Assay [4] concerns the target T1, GroEL.
Assay [5] has as its target T1, GroEL. Kind of assay: other fluorescence titration.

Like-named read-outs stand apart in the source and are kept apart here.

Experimental findings from paper doi:10.1101/2022.05.03.490446 (bioRxiv, 2022) are described below.

By Kd is commonly meant the free concentration of one partner at which half of the binding sites on the other are occupied at equilibrium, for simple one-to-one binding. The Ki is the equilibrium dissociation constant of an inhibitor or competing ligand from its target. The low end stands for tighter binding, the high end for weaker binding.

T1 sequence (P0A6F5 whole entry): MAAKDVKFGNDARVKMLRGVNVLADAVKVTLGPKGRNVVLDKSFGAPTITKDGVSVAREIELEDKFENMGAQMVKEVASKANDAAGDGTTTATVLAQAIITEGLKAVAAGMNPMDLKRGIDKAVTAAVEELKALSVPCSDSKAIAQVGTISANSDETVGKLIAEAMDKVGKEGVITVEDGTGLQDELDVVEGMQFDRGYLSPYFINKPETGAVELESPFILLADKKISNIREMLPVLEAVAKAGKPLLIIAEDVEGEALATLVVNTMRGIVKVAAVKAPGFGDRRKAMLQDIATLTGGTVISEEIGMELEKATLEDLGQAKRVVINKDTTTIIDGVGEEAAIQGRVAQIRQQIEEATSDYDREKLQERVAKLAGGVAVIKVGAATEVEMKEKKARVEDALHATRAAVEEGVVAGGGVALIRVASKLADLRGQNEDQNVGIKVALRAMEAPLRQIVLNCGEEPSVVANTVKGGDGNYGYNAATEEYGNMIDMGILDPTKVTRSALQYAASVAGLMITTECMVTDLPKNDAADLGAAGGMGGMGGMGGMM

With “CnoX (from UniProt P77395 1-284) (natural protein)”, in assay [1], the stoichiometry N (GroEL:CnoX molar ratio) worked out at 14. The molecule also yielded a specific binding force in assay [2] of 175 pN.
In the case of “fluorescein-labeled CnoX (from UniProt P77395 1-284) (natural protein)”, the values for the Kd in assay [3] and in assay [4] were 310 nM and 350 nM, respectively.

B1: GroES (natural protein)
chain: MNIRPLHDRVIVKRKEVETKSAGGIVLTGSAAAKSTRGEVLAVGNGRILENGEVKPLDVKVGDIVIFNDGYGVKSEKIDNEEVLIMSESDILAIVEA
In turn, B1 had a Ki in assay [5] of 47 nM. This lies in the double-digit nanomolar range.
